Paper PMC9882070 (bioRxiv, 2023)

Key:
Assay in all cases: ThT fluorescence aggregation assay + negative-stain TEM
[1] = target: R1R3Ac, R1R3 tau peptide chemically acetylated with N-succinimidyl acetate
[2] = target: R2R3Ac, R2R3 tau peptide chemically acetylated with N-succinimidyl acetate
[3] = target: the molecule itself

Molecule | t1/2max of ThT aggregation [3] | other results
R1R3Ac, R1R3 tau peptide chemically acetylated with N-succinimidyl acetate | – | t1/2max of ThT aggregation [1]: 1.66 days
R2R3Ac, R2R3 tau peptide chemically acetylated with N-succinimidyl acetate | – | t1/2max of ThT aggregation [2]: 4.12 days
KDNIQHVPGGGSVQIVYK [R2R3_2Q tau peptide] | 3 ± 0.3 days | –
KDNIKHVPGGGSVQIVYQ [R2R3_3Q tau peptide] | 0.16 days | –
TENLQHQPGGGQVQIVYK [R1R3_12Q tau peptide] | < 1.5 days | –
TENLKHQPGGGQVQIVYQ [R1R3_23Q tau peptide] | < 0.25 days | –
TENLQHQPGGGQVQIINK [R1R2_12Q tau peptide] | < 1.5 days | –
TENLQHQPGGGKVQIVYQ [R1R3_13Q tau peptide] | – | binding result [3]: binds
